Read-outs that look alike come from different tables or passages of the source.
Experiments:
[1] = target: UspA2 on the surface of M. catarrhalis (clinical isolates BBH18 and RH4) (Moraxella catarrhalis); assay: flow cytometry on M. catarrhalis RH4 ΔuspA1 (UspA2 left on the surface) incubated with EDTA-treated normal human serum: rabbit anti-C3d pAb + FITC anti-rabbit pAb; same column: wild type mfi 5.4, Δmid mfi 5.7 (both carry UspA1 and UspA2), ΔuspA1/A2 mfi 0.8
[2] = target: UspA1 on the surface of M. catarrhalis (clinical isolates BBH18 and RH4) (Moraxella catarrhalis); assay: flow cytometry on M. catarrhalis RH4 ΔuspA2 (UspA1 left on the surface) incubated with EDTA-treated normal human serum: rabbit anti-C3d pAb + FITC anti-rabbit pAb; same column: wild type mfi 5.4, Δmid mfi 5.7 (both carry UspA1 and UspA2), ΔuspA1/A2 mfi 0.8
[3] = target: UspA1 on the surface of M. catarrhalis (clinical isolates BBH18 and RH4) (Moraxella catarrhalis); assay: flow cytometry on M. catarrhalis RH4 ΔuspA2 (UspA1 left on the surface) incubated with C3met: rabbit anti-C3d pAb + FITC anti-rabbit pAb; same column: wild type mfi 22.1, Δmid mfi 23.4 (both carry UspA1 and UspA2), ΔuspA1/A2 mfi 0.3
[4] = target: UspA2 on the surface of M. catarrhalis (clinical isolates BBH18 and RH4) (Moraxella catarrhalis); assay: flow cytometry on M. catarrhalis RH4 ΔuspA1 (UspA2 left on the surface) incubated with C3met: rabbit anti-C3d pAb + FITC anti-rabbit pAb; same column: wild type mfi 22.1, Δmid mfi 23.4 (both carry UspA1 and UspA2), ΔuspA1/A2 mfi 0.3
[5] = target: T1, Engelbreth-Holm-Swarm mouse sarcoma laminin (Sigma) (mouse, UniProt P19137 25-3083; P02469 22-1786; P02468 34-1607); assay: ELISA: 40 nM UspA2 30-539 coated, soluble laminin titrated in three-fold steps 0.03-60 µg/ml, rabbit anti-laminin pAb + HRP anti-rabbit pAb
T1 construct: also called soluble laminin

[6] = target: T2, methylamine-treated C3 (C3met) (human, UniProt P01024 23-667; P01024 672-1663); assay: SPR (Biacore 2000), UspA protein amine-coupled on CM5 chip, C3met injected, steady state affinity model; UspA2^30-539 on the chip
T2 construct: mature; also called C3b-like molecule; [125I]-C3met

[7] = target: T1, Engelbreth-Holm-Swarm mouse sarcoma …; assay: ELISA: 40 nM protein coated, laminin 20 µg/ml, rabbit anti-laminin pAb + HRP anti-rabbit pAb
[8] = target: T1, Engelbreth-Holm-Swarm mouse sarcoma …; assay: as above; remark: listed apart in the source
[9] = target: T3, fibronectin (Sigma), soluble (UniProt P02751 32-2296); assay: ELISA: 40 nM fragment coated, fibronectin 120 µg/ml, rabbit anti-fibronectin pAb + HRP anti-rabbit pAb
T3 construct: also called soluble fibronectin; 125I-labeled fibronectin

[10] = target: T1, Engelbreth-Holm-Swarm mouse sarcoma …; assay: ELISA: 40 nM protein coated, laminin 20 µg/ml, rabbit anti-laminin pAb + HRP anti-rabbit pAb; remark: listed apart in the source
[11] = target: T3, fibronectin (Sigma), soluble; assay: ELISA: 40 nM fragment coated, fibronectin 80 µg/ml, rabbit anti-fibronectin pAb + HRP anti-rabbit pAb
[12] = target: T3, fibronectin (Sigma), soluble; assay: competition, flow cytometry: fibronectin pre-incubated with the UspA1 fragment, then M. catarrhalis added; fibronectin left bound to the bacteria detected with anti-fibronectin pAb
[13] = target: T1, Engelbreth-Holm-Swarm mouse sarcoma …; assay: ELISA: 40 nM protein coated, laminin 20 µg/ml, rabbit anti-laminin pAb + HRP anti-rabbit pAb; remark: listed apart in the source
[14] = target: T2, methylamine-treated C3 (C3met); assay: ELISA: 40 nM protein coated, C3met in solution, goat anti-human C3 pAb + HRP anti-goat pAb, background subtracted

T3 sequence (P02751 other isoform, or with tags, fused parts or gaps limits assumed): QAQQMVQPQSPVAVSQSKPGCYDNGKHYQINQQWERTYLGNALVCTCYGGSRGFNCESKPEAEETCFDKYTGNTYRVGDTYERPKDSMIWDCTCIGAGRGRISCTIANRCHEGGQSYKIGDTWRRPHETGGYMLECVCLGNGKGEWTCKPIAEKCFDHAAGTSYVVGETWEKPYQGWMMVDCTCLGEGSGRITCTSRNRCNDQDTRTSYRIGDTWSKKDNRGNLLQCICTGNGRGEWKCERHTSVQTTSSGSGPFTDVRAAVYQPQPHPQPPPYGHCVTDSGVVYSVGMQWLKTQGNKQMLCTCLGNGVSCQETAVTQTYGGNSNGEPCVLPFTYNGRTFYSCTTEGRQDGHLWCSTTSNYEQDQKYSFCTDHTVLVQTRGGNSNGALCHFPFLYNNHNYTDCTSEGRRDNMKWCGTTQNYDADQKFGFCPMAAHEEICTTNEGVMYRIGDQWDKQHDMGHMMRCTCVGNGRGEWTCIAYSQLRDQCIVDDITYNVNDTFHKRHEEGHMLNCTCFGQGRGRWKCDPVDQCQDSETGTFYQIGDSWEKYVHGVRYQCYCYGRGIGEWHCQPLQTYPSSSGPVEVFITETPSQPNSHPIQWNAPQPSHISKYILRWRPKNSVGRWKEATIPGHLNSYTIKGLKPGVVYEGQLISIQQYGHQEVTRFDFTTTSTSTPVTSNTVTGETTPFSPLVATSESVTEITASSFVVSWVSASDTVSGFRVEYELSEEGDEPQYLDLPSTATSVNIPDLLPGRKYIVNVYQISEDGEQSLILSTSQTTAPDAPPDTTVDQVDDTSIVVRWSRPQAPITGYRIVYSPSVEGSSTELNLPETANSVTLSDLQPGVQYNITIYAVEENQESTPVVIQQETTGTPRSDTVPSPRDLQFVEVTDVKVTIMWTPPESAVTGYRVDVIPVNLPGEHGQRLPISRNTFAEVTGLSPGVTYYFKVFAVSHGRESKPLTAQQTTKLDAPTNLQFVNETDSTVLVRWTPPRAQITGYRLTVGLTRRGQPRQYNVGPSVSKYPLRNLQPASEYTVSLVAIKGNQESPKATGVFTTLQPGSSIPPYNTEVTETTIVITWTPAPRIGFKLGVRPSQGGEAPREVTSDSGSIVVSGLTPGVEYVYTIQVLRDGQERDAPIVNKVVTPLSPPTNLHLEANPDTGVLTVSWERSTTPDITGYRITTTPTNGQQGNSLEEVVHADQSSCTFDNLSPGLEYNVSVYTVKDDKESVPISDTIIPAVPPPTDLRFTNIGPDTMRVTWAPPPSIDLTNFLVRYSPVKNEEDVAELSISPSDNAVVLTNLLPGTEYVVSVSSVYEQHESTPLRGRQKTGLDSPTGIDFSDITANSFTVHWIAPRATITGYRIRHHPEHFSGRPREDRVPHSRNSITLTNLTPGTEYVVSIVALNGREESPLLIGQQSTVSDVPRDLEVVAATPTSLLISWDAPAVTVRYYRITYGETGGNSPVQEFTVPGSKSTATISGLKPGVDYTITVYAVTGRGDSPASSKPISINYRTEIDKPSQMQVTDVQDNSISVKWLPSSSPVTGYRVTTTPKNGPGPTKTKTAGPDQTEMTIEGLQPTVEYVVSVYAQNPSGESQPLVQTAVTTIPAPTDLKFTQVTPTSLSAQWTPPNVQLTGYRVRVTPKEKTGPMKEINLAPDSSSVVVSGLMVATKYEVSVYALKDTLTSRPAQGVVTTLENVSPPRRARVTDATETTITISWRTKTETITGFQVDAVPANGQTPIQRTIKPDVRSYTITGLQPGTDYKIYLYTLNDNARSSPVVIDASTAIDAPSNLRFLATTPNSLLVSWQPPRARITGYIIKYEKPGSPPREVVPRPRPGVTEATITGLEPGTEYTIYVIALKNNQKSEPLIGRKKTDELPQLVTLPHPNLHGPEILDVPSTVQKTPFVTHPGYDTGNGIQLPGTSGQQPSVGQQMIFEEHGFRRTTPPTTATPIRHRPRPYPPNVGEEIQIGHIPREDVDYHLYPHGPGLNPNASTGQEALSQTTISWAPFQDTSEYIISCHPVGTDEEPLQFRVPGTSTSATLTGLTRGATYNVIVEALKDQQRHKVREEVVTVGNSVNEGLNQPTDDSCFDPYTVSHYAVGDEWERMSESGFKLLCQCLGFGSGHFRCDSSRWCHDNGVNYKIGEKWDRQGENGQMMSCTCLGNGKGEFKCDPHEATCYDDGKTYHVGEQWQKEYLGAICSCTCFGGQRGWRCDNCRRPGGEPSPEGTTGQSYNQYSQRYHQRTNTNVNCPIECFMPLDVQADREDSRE
T2 sequence (P01024 23-667 limits assumed, chain 1 of 2): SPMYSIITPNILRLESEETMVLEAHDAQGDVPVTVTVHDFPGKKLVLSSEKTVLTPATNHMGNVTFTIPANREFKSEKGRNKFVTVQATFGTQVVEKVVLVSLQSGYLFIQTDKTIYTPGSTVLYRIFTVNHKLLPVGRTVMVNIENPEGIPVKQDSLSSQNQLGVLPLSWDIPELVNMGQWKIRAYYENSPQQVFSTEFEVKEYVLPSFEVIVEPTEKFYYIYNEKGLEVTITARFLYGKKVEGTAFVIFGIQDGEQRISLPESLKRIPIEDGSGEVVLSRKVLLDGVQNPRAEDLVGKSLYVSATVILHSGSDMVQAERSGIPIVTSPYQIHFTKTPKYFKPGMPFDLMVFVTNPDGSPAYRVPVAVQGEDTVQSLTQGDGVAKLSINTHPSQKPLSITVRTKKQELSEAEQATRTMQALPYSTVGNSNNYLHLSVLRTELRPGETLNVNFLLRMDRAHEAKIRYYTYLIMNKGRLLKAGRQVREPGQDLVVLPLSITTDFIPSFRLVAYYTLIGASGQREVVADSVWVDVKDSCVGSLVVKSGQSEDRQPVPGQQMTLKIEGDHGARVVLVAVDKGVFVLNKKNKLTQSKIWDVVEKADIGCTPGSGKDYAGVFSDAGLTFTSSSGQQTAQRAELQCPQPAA
T2 sequence (P01024 672-1663 limits assumed, chain 2 of 2): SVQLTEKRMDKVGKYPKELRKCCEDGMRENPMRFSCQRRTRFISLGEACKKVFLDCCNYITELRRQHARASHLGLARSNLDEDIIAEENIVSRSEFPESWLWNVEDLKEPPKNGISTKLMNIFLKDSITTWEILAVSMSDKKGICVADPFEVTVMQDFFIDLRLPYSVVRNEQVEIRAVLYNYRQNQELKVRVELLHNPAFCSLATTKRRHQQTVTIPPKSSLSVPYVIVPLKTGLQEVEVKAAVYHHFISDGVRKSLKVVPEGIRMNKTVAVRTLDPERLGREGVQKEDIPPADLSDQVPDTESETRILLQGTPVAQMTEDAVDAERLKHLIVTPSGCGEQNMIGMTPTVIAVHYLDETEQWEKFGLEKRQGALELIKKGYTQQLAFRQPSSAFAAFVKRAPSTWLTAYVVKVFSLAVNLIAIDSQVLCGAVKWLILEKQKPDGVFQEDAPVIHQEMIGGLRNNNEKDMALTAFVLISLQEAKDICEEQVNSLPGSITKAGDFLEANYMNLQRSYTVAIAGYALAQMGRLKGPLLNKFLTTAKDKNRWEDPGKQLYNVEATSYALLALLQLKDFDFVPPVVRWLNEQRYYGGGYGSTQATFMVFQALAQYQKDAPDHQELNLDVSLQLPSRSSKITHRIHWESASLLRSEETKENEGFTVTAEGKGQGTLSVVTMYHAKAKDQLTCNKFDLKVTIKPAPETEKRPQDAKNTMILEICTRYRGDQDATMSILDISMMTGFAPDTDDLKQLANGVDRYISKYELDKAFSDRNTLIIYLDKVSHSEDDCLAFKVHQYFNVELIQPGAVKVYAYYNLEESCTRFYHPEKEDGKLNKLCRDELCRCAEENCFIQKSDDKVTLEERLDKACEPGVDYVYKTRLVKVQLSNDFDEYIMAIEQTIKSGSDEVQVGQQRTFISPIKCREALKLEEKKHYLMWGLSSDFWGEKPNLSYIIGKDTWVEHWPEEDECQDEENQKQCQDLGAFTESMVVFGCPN

Molecule “complement C3 in normal human serum (from UniProt P01024 23-667; P01024 672-1663)” has a mfi [1] of 3.9 and a mfi [2] of 1.4.

In the case of “methylamine-treated C3 (C3met) (from UniProt P01024 23-667; P01024 672-1663)”, the mfi [3] is reported as 2.7 and the mfi [4] is reported as 14.9.

B1: recombinant UspA2^30-539 (M. catarrhalis Bc5) (other)
chain: QAKNDITLEDLPYLIKKIDQNELEADIGDITALEKYLALSQYGNILALEELNKALEELDEDVGWNQNDIANLEDDVETLTKNQNAFAEQGEAIKEDLQGLADFVEGQEGKILQNETSIKKNTQRNLVNGFEIEKNKDAIAKNNESIEDLYDFGHEVAESIGEIHAHNEAQNETLKGLITNSIENTNNITKNKADIQALENNVVEELFNLSGRLIDQKADIDNNINNIYELAQQQDQHSSDIKTLKKNVEEGLLELSDHIIDQKTDIAQNQANIQDLATYNELQDQYAQKQTEAIDALNKASSENTQNIEDLAAYNELQDAYAKQQTEAIDALNKASSENTQNIEDLAAYNELQDAYAKQQAEAIDALNKASSENTQNIAKNQADIANNITNLYELAQQQDKHRSDIKTLAKTSAANTDRIAKNKADDDASFETLTKNQNTLIEKDKEHDKLITANKTAIDANKASADTKFAATADAFTKNGNAITKNAKSITDLGTKVDGFDSRVTALDT
notes: also called UspA^230-539 [sic]
With B1 the “EC50 (read off the curve)” value [5] was ~3 µg/mL and the Kd [6] was 3000 nM.

B2: recombinant UspA1^50-491 (other)
chain: KVGKATNKISGGDNNTANGTYLTIGGGDYNKTKGRYSTIGGGLFNEATNEYSTIGSGGYNKAKGRYSTIGGGGYNEATNQYSTIGGGDNNTAKGRYSTIGGGGYNEATIENSTVGGGGYNQAKGRNSTVAGGYNNEATGTDSTIAGGRKNQATGKGSFAAGIDNKANADNAVALGNKNTIEGENSVAIGSNNTVKKGQQNVFILGSNTDTTNAQNGSVLLGHNTAGKAATIVNSAEVGGLSLTGFAGASKTGNGTVSVGKKGKERQIVHVGAGEISDTSTDAVNGSQLHVLATVVAQNKADIKDLDDEVGLLGEEINSLEGEIFNNQDAIAKNQADIKTLESNVEEGLLDLSGRLLDQKADIDNNINNIYELAQQQDQHSSDIKTLKNNVEEGLLDLSGRLIDQKADLTKDIKALESNVEEGLLDLSGRLIDQKADIAKNQA
notes: also called N-terminal half of UspA1
B2: binds [7].

B3: recombinant UspA2^30-177 (other)
chain: QAKNDITLEDLPYLIKKIDQNELEADIGDITALEKYLALSQYGNILALEELNKALEELDEDVGWNQNDIANLEDDVETLTKNQNAFAEQGEAIKEDLQGLADFVEGQEGKILQNETSIKKNTQRNLVNGFEIEKNKDAIAKNNESIED
B3: binds [8]; no binding [9].

B4: recombinant UspA1^50-197 (other)
chain: KVGKATNKISGGDNNTANGTYLTIGGGDYNKTKGRYSTIGGGLFNEATNEYSTIGSGGYNKAKGRYSTIGGGGYNEATNQYSTIGGGDNNTAKGRYSTIGGGGYNEATIENSTVGGGGYNQAKGRNSTVAGGYNNEATGTDSTIAGGR
B4: no binding [10]; no binding [11].

B5: recombinant UspA1^50-321 (other)
chain: KVGKATNKISGGDNNTANGTYLTIGGGDYNKTKGRYSTIGGGLFNEATNEYSTIGSGGYNKAKGRYSTIGGGGYNEATNQYSTIGGGDNNTAKGRYSTIGGGGYNEATIENSTVGGGGYNQAKGRNSTVAGGYNNEATGTDSTIAGGRKNQATGKGSFAAGIDNKANADNAVALGNKNTIEGENSVAIGSNNTVKKGQQNVFILGSNTDTTNAQNGSVLLGHNTAGKAATIVNSAEVGGLSLTGFAGASKTGNGTVSVGKKGKERQIVHVGA
B5: no binding [10]; no binding [12].

B6: recombinant UspA1^433-580 (other)
chain: KTLKNNVEEGLLDLSGRLIDQKADLTKDIKALESNVEEGLLDLSGRLIDQKADIAKNQADIAQNQTDIQDLAAYNELQDAYAKQQTEAIDALNKASSANTDRIATAELGIAENKKDAQIAKAQANENKDGIAKNQADIQLHDKKITNL
B6: no binding [10]; no binding [12].

B7: recombinant UspA1^557-704 (other)
chain: NENKDGIAKNQADIQLHDKKITNLGILHSMVARAVGNNTQGVATNKADIAKNQADIANNIKNIYELAQQQDQHSSDIKTLAKVSAANTDRIAKNKAEADASFETLTKNQNTLIEQGEALVEQNKAINQELEGFAAHADVQDKQILQNQ
B7: no binding [10]; no binding [12].

B8: recombinant UspA1^680-770 (other)
chain: KAINQELEGFAAHADVQDKQILQNQADITTNKTAIEQNINRTVANGFEIEKNKAGIATNKQELILQNDRLNRINETNNHQDQKIDQLGYAL
B8: no binding [10]; no binding [12].

B9: UspA1 454-770 (other)
recombinant truncated protein: KADLTKDIKALESNVEEGLLDLSGRLIDQKADIAKNQADIAQNQTDIQDLAAYNELQDAYAKQQTEAIDALNKASSANTDRIATAELGIAENKKDAQIAKAQANENKDGIAKNQADIQLHDKKITNLGILHSMVARAVGNNTQGVATNKADIAKNQADIANNIKNIYELAQQQDQHSSDIKTLAKVSAANTDRIAKNKAEADASFETLTKNQNTLIEQGEALVEQNKAINQELEGFAAHADVQDKQILQNQADITTNKTAIEQNINRTVANGFEIEKNKAGIATNKQELILQNDRLNRINETNNHQDQKIDQLGYAL
B9: no binding [10].

B10: recombinant UspA2^165-318 (other)
chain: KDAIAKNNESIEDLYDFGHEVAESIGEIHAHNEAQNETLKGLITNSIENTNNITKNKADIQALENNVVEELFNLSGRLIDQKADIDNNINNIYELAQQQDQHSSDIKTLKKNVEEGLLELSDHIIDQKTDIAQNQANIQDLATYNELQDQYAQK
notes: also called UspA2^165-316; UspA2^155-318 (misprints)
B10: no binding [13].

B11: recombinant UspA2^302-458 (other)
chain: IQDLATYNELQDQYAQKQTEAIDALNKASSENTQNIEDLAAYNELQDAYAKQQTEAIDALNKASSENTQNIEDLAAYNELQDAYAKQQAEAIDALNKASSENTQNIAKNQADIANNITNLYELAQQQDKHRSDIKTLAKTSAANTDRIAKNKADDDA
B11: no binding [13].

B12: UspA2 446-539 (other)
recombinant truncated protein: TDRIAKNKADDDASFETLTKNQNTLIEKDKEHDKLITANKTAIDANKASADTKFAATADAFTKNGNAITKNAKSITDLGTKVDGFDSRVTALDT
B12: no binding [14]; no binding [13]; no binding [9].

B13: recombinant UspA2^101-318 (other)
chain: LEDDVETLTKNQNAFAEQGEAIKEDLQGLADFVEGQEGKILQNETSIKKNTQRNLVNGFEIEKNKDAIAKNNESIEDLYDFGHEVAESIGEIHAHNEAQNETLKGLITNSIENTNNITKNKADIQALENNVVEELFNLSGRLIDQKADIDNNINNIYELAQQQDQHSSDIKTLKKNVEEGLLELSDHIIDQKTDIAQNQANIQDLATYNELQDQYAQK
B13: no binding [13].
